Each block holds one molecule with its values, some of them ahead of it.
Experiments:
murine CD40 [1] = target: T1, murine CD40 (murine, UniProt P27512 20-193, limits assumed); assay: Octet biolayer interferometry; Loading Sample ID mCD40-his; Full R^2 0.7077
T1 construct: also called mCD40
T1 sequence (looked up): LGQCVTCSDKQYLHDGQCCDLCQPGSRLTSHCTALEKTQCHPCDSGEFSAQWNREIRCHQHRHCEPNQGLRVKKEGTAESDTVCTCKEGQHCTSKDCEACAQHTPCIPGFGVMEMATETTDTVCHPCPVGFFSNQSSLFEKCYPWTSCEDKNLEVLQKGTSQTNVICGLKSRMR

human CD40 [2] = target: T2, human CD40 (human, UniProt P25942 21-193); assay: Octet biolayer interferometry; Loading Sample ID hCD40-his; Full R^2 0.9682
T2 construct: also called hCD40
T2 sequence (P25942 21-193 limits assumed): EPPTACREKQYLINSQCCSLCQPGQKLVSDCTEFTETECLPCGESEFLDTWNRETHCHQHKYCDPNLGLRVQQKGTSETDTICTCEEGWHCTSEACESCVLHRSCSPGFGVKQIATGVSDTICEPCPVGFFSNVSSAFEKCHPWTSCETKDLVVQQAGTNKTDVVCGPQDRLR

murine CD40 [3] = target: T1, murine CD40; assay: Octet biolayer interferometry; Loading Sample ID mCD40-his; kdis(1/s); Full R^2 0.7077
human CD40 [4] = target: T2, human CD40; assay: Octet biolayer interferometry; Loading Sample ID hCD40-his; kdis(1/s); Full R^2 0.9682
human CD40 [5] = target: T2, human CD40; assay: Octet biolayer interferometry; Loading Sample ID hCD40-his; kdis(1/s); Full R^2 0.9810
human CD40 [6] = target: T2, human CD40; assay: Octet biolayer interferometry; Loading Sample ID hCD40-his; kdis(1/s); Full R^2 0.3080
human CD40 [7] = target: T2, human CD40; assay: Octet biolayer interferometry; Loading Sample ID hCD40-his; Full R^2 0.9810
[8] = target: murine galectin-9 (murine) (UniProt O08573); assay: Octet biolayer interferometry; Loading Sample ID mGal9; kdis(1/s); Full R^2 0.9866
Sequence of murine galectin-9 (murine) (O08573 other isoform, or with tags, fused parts or gaps limits assumed): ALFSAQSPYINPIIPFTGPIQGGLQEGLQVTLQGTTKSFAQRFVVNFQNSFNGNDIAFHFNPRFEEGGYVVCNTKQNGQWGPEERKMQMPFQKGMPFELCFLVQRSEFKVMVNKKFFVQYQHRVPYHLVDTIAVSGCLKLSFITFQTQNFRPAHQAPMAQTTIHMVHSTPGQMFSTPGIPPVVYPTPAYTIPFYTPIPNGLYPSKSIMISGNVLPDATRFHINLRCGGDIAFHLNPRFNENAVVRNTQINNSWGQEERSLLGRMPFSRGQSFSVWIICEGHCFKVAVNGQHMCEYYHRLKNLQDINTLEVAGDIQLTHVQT

mIgG Fc gamma [9] = assay: sandwich ELISA: coat mIgG Fc gamma, detection goat anti-mouse Fc (H+L) HRP
human CD40 [10] = target: T2, human CD40; assay: Octet biolayer interferometry; Loading Sample ID hCD40-his; Full R^2 0.9393
human galectin-9 (human) [11] = target: human galectin-9 (human) (UniProt O00182); assay: Octet biolayer interferometry; Loading Sample ID hGal9; Full R^2 0.9934
Sequence of human galectin-9 (human) (O00182 other isoform, or with tags, fused parts or gaps limits assumed): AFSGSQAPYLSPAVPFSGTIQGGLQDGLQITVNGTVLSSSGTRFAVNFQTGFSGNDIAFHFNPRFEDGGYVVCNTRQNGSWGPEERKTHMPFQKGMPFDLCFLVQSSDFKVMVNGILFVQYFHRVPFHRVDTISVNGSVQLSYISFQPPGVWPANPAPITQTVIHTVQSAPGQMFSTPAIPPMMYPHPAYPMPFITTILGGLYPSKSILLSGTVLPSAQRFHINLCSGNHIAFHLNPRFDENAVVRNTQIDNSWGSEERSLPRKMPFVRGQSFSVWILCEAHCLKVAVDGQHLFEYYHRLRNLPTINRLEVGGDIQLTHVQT

murine CD40 [12] = target: T1, murine CD40; assay: Octet biolayer interferometry; Loading Sample ID mCD40-his; kdis(1/s); Full R^2 0.7890
human galectin-9 (human) [13] = target: human galectin-9 (human) (UniProt O00182); assay: Octet biolayer interferometry; Loading Sample ID hGal9; kdis(1/s); Full R^2 0.9934
[14] = target: murine galectin-9 (murine) (UniProt O08573); assay: Octet biolayer interferometry; Loading Sample ID mGal9; Full R^2 0.9866
murine CD40 [15] = target: T1, murine CD40; assay: Octet biolayer interferometry; Loading Sample ID mCD40-his; Full R^2 0.7890
human CD40 [16] = target: T2, human CD40; assay: Octet biolayer interferometry; Loading Sample ID hCD40-his; kdis(1/s); Full R^2 0.9393
murine CD40 [17] = target: T1, murine CD40; assay: Octet biolayer interferometry; Loading Sample ID mCD40-his; kdis(1/s); Full R^2 0.9955
[18] = target: murine galectin-9 (murine) (UniProt O08573); assay: Octet biolayer interferometry; Loading Sample ID mGal9; Full R^2 0.9973
human CD40 [19] = target: T2, human CD40; assay: Octet biolayer interferometry; Loading Sample ID hCD40-his; Full R^2 0.3080
murine CD40 [20] = target: T1, murine CD40; assay: Octet biolayer interferometry; Loading Sample ID mCD40-his; Full R^2 0.9955
[21] = target: recombinant mouse CD40-Fc protein (mouse) (UniProt P27512); assay: ELISA: coat mCD40-Fc, detection anti-mCD40L and an HRP conjugate
[22] = target: murine galectin-9 (murine) (UniProt O08573); assay: Octet biolayer interferometry; Loading Sample ID mGal9; kdis(1/s); Full R^2 0.9973
mIgG Fc gamma [23] = assay: sandwich ELISA: coat mIgG Fc gamma, detection goat anti-mouse Fc (H+L) HRP; standard: mouse whole IgG
human CD40 [24] = target: T2, human CD40; assay: Octet biolayer interferometry; Loading Sample ID hCD40-his; Full R^2 0.5111
murine CD40 [25] = target: T1, murine CD40; assay: Octet biolayer interferometry; Loading Sample ID mCD40-his; Full R^2 0.9077
murine CD40 [26] = target: T1, murine CD40; assay: Octet biolayer interferometry; Loading Sample ID mCD40-his; KD and kdis cells blank; Full R^2 0.6015
human CD40 [27] = target: T2, human CD40; assay: Octet biolayer interferometry; Loading Sample ID hCD40-his; kdis(1/s); Full R^2 0.5111
murine CD40 [28] = target: T1, murine CD40; assay: Octet biolayer interferometry; Loading Sample ID mCD40-his; kdis(1/s); Full R^2 0.9077

Molecule: hCD40L-Fc (Fc fusion)
- Kd (murine CD40 [1]): 10.6 nM
- kon (murine CD40 [1]): 229000 M⁻¹ s⁻¹
- Kd (human CD40 [2]): 6.18 nM
- kon (human CD40 [2]): 120000 M⁻¹ s⁻¹
- koff (murine CD40 [3]): 0.00241 s⁻¹
- koff (human CD40 [4]): 0.000734 s⁻¹

Molecule: mTIM-3-Fc-CD40L chimeric protein (from UniProt Q8VIM0 20-193; P27548 47-260) (Fc fusion)
- koff (human CD40 [5]): 0.000103 s⁻¹
- koff (human CD40 [6]): 0.00103 s⁻¹
- Kd (human CD40 [7]): 3 nM
- kon (human CD40 [7]): 30600 M⁻¹ s⁻¹
- koff [8]: 0.000803 s⁻¹
- EC50 (read off the curve) (mIgG Fc gamma [9]): 4 nM
- Kd (human CD40 [10]): 9.46 nM
- kon (human CD40 [10]): 59400 M⁻¹ s⁻¹
- Kd (human galectin-9 (human) [11]): 69 nM
- koff (murine CD40 [12]): 0.00286 s⁻¹
- koff (human galectin-9 (human) [13]): 0.00108 s⁻¹
- Kd [14]: 7.07 nM
- kon [14]: 114000 M⁻¹ s⁻¹
- Kd (murine CD40 [15]): 29.9 nM
- kon (murine CD40 [15]): 79200 M⁻¹ s⁻¹
- koff (human CD40 [16]): 0.000733 s⁻¹
- koff (murine CD40 [17]): 0.000295 s⁻¹
- Kd [18]: 16.7 nM
- kon [18]: 58500 M⁻¹ s⁻¹
- Kd (human CD40 [19]): 9.37 nM
- Kd (murine CD40 [20]): 8.92 nM
- kon (murine CD40 [20]): 33700 M⁻¹ s⁻¹
- EC50 (read off the curve) [21]: 10 nM
- koff [22]: 0.00098 s⁻¹

The remaining lines, values ahead:

- EC50 (read off the curve) (mIgG Fc gamma [23]): 2 nM
Molecule: mouse IgG (antibody)

- Kd (human CD40 [24]): 4.8 nM
- kon (human CD40 [24]): 220000 M⁻¹ s⁻¹
- Kd (murine CD40 [25]): 14.1 nM
- kon (murine CD40 [25]): 81500 M⁻¹ s⁻¹
- kon (murine CD40 [26]): 118000 M⁻¹ s⁻¹
- koff (human CD40 [27]): 0.00115 s⁻¹
- koff (murine CD40 [28]): 0.00114 s⁻¹
B1: mCD40L-Fc fusion protein (Fc fusion, murine, UniProt P27548 112-260, looked up)
chain: MQRGDEDPQIAAHVVSEANSNAASVLQWAKKGYYTMKSNLVMLENGKQLTVKREGLYYVYTQVTFCSNREPSSQRPFIVGLWLKPSSGSERILLKAANTHSSSQLCEQQSVHLGGVFELQAGASVFVNVTEASQVIHRVGFSSFGLLKL
notes: also called recombinant mCD40L-Fc protein; not shown: Fc part

— patent publication US20210179689A1 (SHATTUCK LABS, published 2021)
